Reference: the Human Domainome abundance scans (Beltran et al. 2025)
± gives the uncertainty stated by the source.

B1: Chromodomain-helicase-DNA-binding protein 7, residues 2564 to 2605; numbered along this chain, Q9P2D1 (parent)
chain: DPDTRIPVINLEDGTRLVGEDAPKNKDLVEWLKLHPTYTVDM

Variants of: B1
Assay: abundance fitness (aPCA) (normalised: wild type 0, dead -1); higher = more abundant; growth selection in yeast, the domain comes from the species named
Details: Homo sapiens

Variant	abundance fitness
DPDTRIPVINLEDGTRLVLEDAPKNKDLVEWLKLHPTYTVDM [G19L]	-0.518 ± 0.13
DPDTRIPVINLEDGTRLVEEDAPKNKDLVEWLKLHPTYTVDM [G19E]	-0.093 ± 0.11
DPDTRIPVINLEDGTRLVIEDAPKNKDLVEWLKLHPTYTVDM [G19I]	-0.644 ± 0.075
DPDTRIPVINLEDGTRLVWEDAPKNKDLVEWLKLHPTYTVDM [G19W]	-0.638 ± 0.082
DPDTRIPVINLEDGTRLVREDAPKNKDLVEWLKLHPTYTVDM [G19R]	-0.59 ± 0.1
DPDTRIPVINLEDGTRLVHEDAPKNKDLVEWLKLHPTYTVDM [G19H]	-0.478 ± 0.077
DPDTRIPVINLEDGTRLVSEDAPKNKDLVEWLKLHPTYTVDM [G19S]	-0.468 ± 0.062
DPDTRIPVINLEDGTRLVQEDAPKNKDLVEWLKLHPTYTVDM [G19Q]	-0.437 ± 0.12
DPDTRIPVINLEDGTRLVMEDAPKNKDLVEWLKLHPTYTVDM [G19M]	-0.442 ± 0.073
DPDTRIPVINLEDGTRLVVEDAPKNKDLVEWLKLHPTYTVDM [G19V]	-0.64 ± 0.079
DPDTRIPVINLEDGTRLVDEDAPKNKDLVEWLKLHPTYTVDM [G19D]	-0.125 ± 0.065
DPDTRIPVINLEDGTRLVTEDAPKNKDLVEWLKLHPTYTVDM [G19T]	-0.741 ± 0.08
DPDTRIPVINLEDGTRLVYEDAPKNKDLVEWLKLHPTYTVDM [G19Y]	-0.45 ± 0.12
DPDTRIPVINLEDGTRLVNEDAPKNKDLVEWLKLHPTYTVDM [G19N]	-0.264 ± 0.16
DPDTRIPVINLEDGTRLVAEDAPKNKDLVEWLKLHPTYTVDM [G19A]	-0.292 ± 0.11
DPDTRIPVINLEDGTRLVKEDAPKNKDLVEWLKLHPTYTVDM [G19K]	-0.262 ± 0.15
DPDTRIPVINLEDGTRLVFEDAPKNKDLVEWLKLHPTYTVDM [G19F]	-0.852 ± 0.13
DPDTRIPVINLEDGTRFVGEDAPKNKDLVEWLKLHPTYTVDM [L17F]	-0.191 ± 0.13
DPDTRIPVINLEDGTRDVGEDAPKNKDLVEWLKLHPTYTVDM [L17D]	-0.41 ± 0.064
DPDTRIPVINLEDGTRIVGEDAPKNKDLVEWLKLHPTYTVDM [L17I]	-0.012 ± 0.072

Variant	abundance fitness
DPDTRIPVINLEDGTRQVGEDAPKNKDLVEWLKLHPTYTVDM [L17Q]	-0.124 ± 0.086
DPDTRIPVINLEDGTREVGEDAPKNKDLVEWLKLHPTYTVDM [L17E]	-0.321 ± 0.12
DPDTRIPVINLEDGTRWVGEDAPKNKDLVEWLKLHPTYTVDM [L17W]	-0.527 ± 0.08
DPDTRIPVINLEDGTRPVGEDAPKNKDLVEWLKLHPTYTVDM [L17P]	-1.01 ± 0.27
DPDTRIPVINLEDGTRGVGEDAPKNKDLVEWLKLHPTYTVDM [L17G]	-0.371 ± 0.056
DPDTRIPVINLEDGTRYVGEDAPKNKDLVEWLKLHPTYTVDM [L17Y]	-0.217 ± 0.063
DPDTRIPVINLEDGTRVVGEDAPKNKDLVEWLKLHPTYTVDM [L17V]	-0.17 ± 0.055
DPDTRIPVINLEDGTRMVGEDAPKNKDLVEWLKLHPTYTVDM [L17M]	0.151 ± 0.073
DPDTRIPVINLEDGTRTVGEDAPKNKDLVEWLKLHPTYTVDM [L17T]	-0.308 ± 0.12
DPDTRIPVINLEDGTRHVGEDAPKNKDLVEWLKLHPTYTVDM [L17H]	-0.095 ± 0.41
DPDTRIPVINLEDGTRCVGEDAPKNKDLVEWLKLHPTYTVDM [L17C]	-0.272 ± 0.051
DPDTRIPVINLEDGTRSVGEDAPKNKDLVEWLKLHPTYTVDM [L17S]	-0.421 ± 0.06
DPDTRIPVINLEDGTRRVGEDAPKNKDLVEWLKLHPTYTVDM [L17R]	-0.046 ± 0.064
DPDTRIPVINLEDGTRNVGEDAPKNKDLVEWLKLHPTYTVDM [L17N]	-0.351 ± 0.17
DPDTRIPVINLEDGTLLVGEDAPKNKDLVEWLKLHPTYTVDM [R16L]	-0.077 ± 0.39
DPDTRIPVINLEDGTHLVGEDAPKNKDLVEWLKLHPTYTVDM [R16H]	0.071 ± 0.077
DPDTRIPVINLEDGTALVGEDAPKNKDLVEWLKLHPTYTVDM [R16A]	-0.039 ± 0.067
DPDTRIPVINLEDGTCLVGEDAPKNKDLVEWLKLHPTYTVDM [R16C]	0.154 ± 0.069
DPDTRIPVINLEDGTMLVGEDAPKNKDLVEWLKLHPTYTVDM [R16M]	0.502 ± 0.24
DPDTRIPVINLEDGTNLVGEDAPKNKDLVEWLKLHPTYTVDM [R16N]	-0.128 ± 0.12

Variant	abundance fitness
DPDTRIPVINLEDGTWLVGEDAPKNKDLVEWLKLHPTYTVDM [R16W]	-0.173 ± 0.069
DPDTRIPVINLEDGTQLVGEDAPKNKDLVEWLKLHPTYTVDM [R16Q]	-0.23 ± 0.43
DPDTRIPVINLEDGTGLVGEDAPKNKDLVEWLKLHPTYTVDM [R16G]	-0.4 ± 0.053
DPDTRIPVINLEDGTKLVGEDAPKNKDLVEWLKLHPTYTVDM [R16K]	0.06 ± 0.17
DPDTRIPVINLEDGTVLVGEDAPKNKDLVEWLKLHPTYTVDM [R16V]	0.059 ± 0.072
DPDTRIPVINLEDGTSLVGEDAPKNKDLVEWLKLHPTYTVDM [R16S]	0.132 ± 0.047
DPDTRIPVINLEDGTRLVGYDAPKNKDLVEWLKLHPTYTVDM [E20Y]	-0.395 ± 0.064
DPDTRIPVINLEDGTRLVGFDAPKNKDLVEWLKLHPTYTVDM [E20F]	-0.365 ± 0.085
DPDTRIPVINLEDGTRLVGDDAPKNKDLVEWLKLHPTYTVDM [E20D]	-0.059 ± 0.059
DPDTRIPVINLEDGTRLVGHDAPKNKDLVEWLKLHPTYTVDM [E20H]	-0.498 ± 0.15
DPDTRIPVINLEDGTRLVGMDAPKNKDLVEWLKLHPTYTVDM [E20M]	-0.235 ± 0.15
DPDTRIPVINLEDGTRLVGSDAPKNKDLVEWLKLHPTYTVDM [E20S]	-0.159 ± 0.063
DPDTRIPVINLEDGTRLVGRDAPKNKDLVEWLKLHPTYTVDM [E20R]	-0.189 ± 0.055
DPDTRIPVINLEDGTRLVGADAPKNKDLVEWLKLHPTYTVDM [E20A]	-0.163 ± 0.11
DPDTRIPVINLEDGTRLVGIDAPKNKDLVEWLKLHPTYTVDM [E20I]	-0.208 ± 0.063
DPDTRIPVINLEDGTRLVGNDAPKNKDLVEWLKLHPTYTVDM [E20N]	-0.167 ± 0.064
DPDTRIPVINLEDGTRLVGKDAPKNKDLVEWLKLHPTYTVDM [E20K]	-0.125 ± 0.1
DPDTRIPVINLEDGTRLVGWDAPKNKDLVEWLKLHPTYTVDM [E20W]	-0.447 ± 0.075
DPDTRIPVINLEDGTRLVGCDAPKNKDLVEWLKLHPTYTVDM [E20C]	-0.264 ± 0.056
DPDTRIPVINLEDGTRLVGTDAPKNKDLVEWLKLHPTYTVDM [E20T]	-0.027 ± 0.082
